Data from patent US20120047604.

System: casein

## GST-WKS1_Kinase fusion protein
  in-gel kinase activity: The WKS1 Ser/Thr kinase domain (pfam00069) was confirmed to have kinase activity (FIG. 17)
